B1: rabbit Fab 1 (rabbit VH1, VL1; chimeric rabbit/human Fab) (Fab, V domains shown)
VH: QQQVMESGGGLVTLGGSLTLTCKASGIDFSNNGISWVRQAPGKGLEWILYIYPDYGSTDYASWVNGRFTISLDNAQNTVFLQMTSLTAADTATYFCARDRGAYAGSRGTRLDLWGQGTLVTVSS
VL: EFDMTQTPPSLSASVGETVRIRCLASEFLFNGVSWYQQKPGKPPKFLISGASNLESGVPPRFSGSGSGTDYTLTIGGVQAEDVATYYCLGGYSGSSGLTFGAGTNVEIK
notes: Soluble Fab from E. coli; also called rabbit 1; rabbit clone 1
B2: humanized Fab B (human VLB and human VHB) (Fab, V domains shown)
VH: EVQVMESGGGLVKPGGSLRLSCAASGIGFSHYGISWVRQAPGKGLEWVSYIYPNYGSVDYASSVNGRFTISLDNAQNSLYLQMNSLRAEDTAVYFCARDRGYYSGSRGTRLDLWGQGTLVTVSS
VL: ELQMTQSPSSLSASVGDRVTITCLASEFLFNGVSWYQQKPGKVPKFLIYGASNLESGVPSRFSGSGSGTDFTLTISSLQPEDVATYYCLGGYSGSSGLTFGGGTKVEIK
B3: humanized Fab D (human VLD and human VHD) (Fab, V domains shown)
VH: B2 VH with G28D
VL: B2 VL with F71Y
B4: humanized Fab E (human VLE and human VHE) (Fab, V domains shown)
VH: B2 VH with I27F, G28T, L72F, L79V, F95Y
VL: B2 VL with V43A, F46L, F71Y
B5: humanized Fab C (human VLC and human VHC) (Fab, V domains shown)
VH: B2 VH with G28D, F95Y
VL: B2 VL with V43A
B6: humanized Fab F (human VLF and human VHF) (Fab, V domains shown)
VH: B2 VH with F95Y
VL: B2 VL with V43A
B7: humanized Fab A (human VLA and human VHA) (Fab, V domains shown)
VH: B2 VH with G28D, L72F, F95Y
VL: B2 VL with F71Y

Residue numbers refer to the chain shown, from its start.

The first experiment concerns the target T1, recombinant human A33 antigen (human, UniProt Q99795 22-233, limits assumed).
T1 construct: also called human antigen A33; immobilized recombinant human A33
T1 sequence (looked up): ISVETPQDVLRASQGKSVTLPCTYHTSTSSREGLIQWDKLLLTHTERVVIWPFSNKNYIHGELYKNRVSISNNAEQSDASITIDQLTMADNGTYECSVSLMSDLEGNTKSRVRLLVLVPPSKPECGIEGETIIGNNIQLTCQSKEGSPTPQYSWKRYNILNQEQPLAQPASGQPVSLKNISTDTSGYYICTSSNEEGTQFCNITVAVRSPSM
Nature of the experiment: SPR (Biacore), recombinant human A33 immobilized on CM5 chip, Fab injected at 75-200 nM. The method, then:
(§1) The binding strength was determined by surface plasmon resonance in accordance with Rader, et al., Proc. Natl. Acad. Sci USA 95(15): 8910–8915 (1998), incorporated by reference. Briefly, the determination of association ($kon$) and dissociation ($koff$) rate constants for binding of rabbit and humanized Fab to recombinant human A33 antigen was performed on a Biacore instrument (Biacore AB, Uppsala, Sweden). A CM5 sensor chip (Biacore AB) was activated for immobilization with Nhydroxysuccinimide and N-ethyl-N'-(3-dimethylaminopropyl)carbodiimide according to standard methods. Recombinant human A33 antigen was coupled at a low density to the surface by injection of 30 µl to 40 µl of a 1 ng/µl sample in 10 mM sodium acetate (pH 3.5). Approximately 500 resonance units were immobilized. Subsequently, the sensor chip was deactivated with 1 M ethanolamine hydrochloride (pH 8.5). Binding of Fab to immobilized A33 antigen was studied by injection of Fab at 5 different concentrations ranging from 75 nM to 200 nM. PBS was used as the running buffer. The sensor chip was regenerated with 20 mM HCl and remained active for at least 50 measurements. The $kon$ and $koff$ values were calculated using Biacore AB evaluation software. The equilibrium dissociation constant K_d was calculated from $koff/kon$.
Figure 6: FIG. 6 depicts representative Biacore sensorgrams obtained for the binding of rabbit Fab 1 to immobilized human A33 antigen. For association, Fab were injected at 5 different concentrations (200 nM, 150 nM, 125 nM, 100 nM, 75 nM, top to bottom) between t=125 and t=370 seconds, using a flow rate of 5 µl/minute. For dissociation, the flow rate was increased to 50 µl/minute resonance units (RU).
On the technique in general: In SPR one partner is held on a chip, and binding of the other changes the refractive index at the surface.
By koff is commonly meant the rate constant with which the complex falls apart. Broadly, the kon is the rate constant with which the complex forms. Regarding B1, the off-rate constant (koff) is 0.00012 s⁻¹ and the kon was determined as 307000 M⁻¹ s⁻¹.
For the molecule B2, the dissociation rate constant (koff) came to 0.00061 s⁻¹ and the association rate constant (kon) was 352000 M⁻¹ s⁻¹.
The like results for B3 were, in that order, 0.0019 s⁻¹ and 65000 M⁻¹ s⁻¹.
The like results for B4 were, in that order, 0.0005 s⁻¹ and 65000 M⁻¹ s⁻¹.
Turning to B5, the koff is 0.00197 s⁻¹ and the kon is 109000 M⁻¹ s⁻¹.
On to B6, for which the koff amounted to 0.00068 s⁻¹ and the kon came to 192000 M⁻¹ s⁻¹.
Take B7: the koff worked out at 0.00059 s⁻¹ and the kon was 105000 M⁻¹ s⁻¹.

A further experiment has as its target T1, recombinant human A33 antigen. Briefly: SPR (Biacore), recombinant human A33 immobilized on CM5 chip; Kd calculated from koff/kon. The protocol:
as §1
Association ($kon$) and dissociation ($koff$) rate constant were determined using surface plasmon resonance. Human antigen A33 was immobilized on the sensor chip. The dissociation constant (K_d) was calculated from […].
What is called Kd is a measure of binding affinity in units of concentration. For B1, the Kd is 0.39 nM.
The same measure, in the same setting: the figure for B2 is 1.7 nM; for B3 it is 29.2 nM; for B4 it is 7.7 nM.
Take B5: the Kd is 18.1 nM.
As for B6, the Kd was 3.5 nM.
On the same count and under the same terms, the figure for B7 is 5.6 nM.

Source of the values: patent US6346249 (LUDWIG INSTITUTE FOR CANCER RESEARCH, dated 2002).
